Holding throughout (test): cell_activity
Holding throughout (details): 79/528 porcine fibroblast clones; both TALEN pairs (5-2 and 3-2) plus HR oligo used together

Data set [1] deals with TALEN ETV2 3-2 Right.
The test system of data set [2] is TALEN ETV2 5-2 Left.
In data set [3] the test system is TALEN ETV2 3-2 Left.
Data set [4] has as its system TALEN ETV2 5-2 Right.

“CCCCTAAGGGTCCTG (double strand) [ETV2 3-2 right half-site]”: in data set [1], the activity (% of clones homozygous for deletion) came out at 15.
In the case of “CTGGCCGGAAATCCCC (double strand) [ETV2 5-2 left half-site]”, the activity (% of clones homozygous for deletion) in data set [2] amounted to 15.
For the sequence “GATCCCAAGTCACACC (double strand) [ETV2 3-2 left half-site]”, the activity (% of clones homozygous for deletion) in data set [3] worked out at 15.
For the sequence “GGGCTGCACCAGGCT (double strand) [ETV2 5-2 right half-site]”, in data set [4], the activity (% of clones homozygous for deletion) is 15.

For the origin of these results see patent US20180037620.
